Measurements taken from paper PMC4263744, “Single Arginine Mutation in Two Yeast Isocitrate Dehydrogenases: Biochemical Characterization and Functional Implication” (PLoS ONE, 2014).
Where a chain is given by its changes, count along the chain named. Names and notes keep the numbering of the source.

Assays:
HcIDH [1] = target: T1, HcIDH (Homo sapiens, UniProt O75874, R132H); experiment: NADPH consumption at […] nm; assay type: biochemical; conditions: 2 mM MgCl2, 50 mM Tris-HCl pH 8.0, neomorphic reduction to 2-HG, read-out: α-KG / K m
T1 construct: gene IDH1; synthetic gene, 6xHis-tagged, pET-28b(+), E. coli Rosetta (DE3); 420 residues per subunit
T1 sequence (O75874 whole entry R132H): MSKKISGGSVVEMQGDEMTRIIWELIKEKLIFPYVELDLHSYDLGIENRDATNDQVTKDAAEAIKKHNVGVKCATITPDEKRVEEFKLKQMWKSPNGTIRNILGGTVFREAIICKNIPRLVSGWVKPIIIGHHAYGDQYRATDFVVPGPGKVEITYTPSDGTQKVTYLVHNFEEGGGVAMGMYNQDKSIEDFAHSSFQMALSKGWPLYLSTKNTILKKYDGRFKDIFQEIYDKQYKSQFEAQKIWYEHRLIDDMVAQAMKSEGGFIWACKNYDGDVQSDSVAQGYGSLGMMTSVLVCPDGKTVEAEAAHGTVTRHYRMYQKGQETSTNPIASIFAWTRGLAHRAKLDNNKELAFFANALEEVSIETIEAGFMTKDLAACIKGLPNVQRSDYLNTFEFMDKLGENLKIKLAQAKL

HcIDH [2] = target: T2, HcIDH (Homo sapiens, UniProt O75874); experiment: NADPH formation at […] nm, nonlinear regression; assay type: biochemical; conditions: 0.5 mM NADP+, 2 mM MgCl2, 50 mM Tris-HCl pH 8.0, 25°C; apparent; as D-isocitrate; read-out: Isocitrate ^a / K m
T2 construct: gene IDH1; synthetic gene, 6xHis-tagged, pET-28b(+), E. coli Rosetta (DE3); 420 residues per subunit
T2 sequence (O75874 whole entry): as the sequence (O75874 whole entry R132H) above, with H132R counted along it

HcIDH [3] = target: T1, HcIDH; experiment: NADPH formation at […] nm, linear regression; assay type: biochemical; conditions: 0.5 mM NADP+, 2 mM MgCl2, 50 mM Tris-HCl pH 8.0, 25°C; apparent; as D-isocitrate; read-out: Isocitrate ^a / K m
purified protein [4] = substrate: O=C(O)C[C@H](C(=O)O)[C@@H](O)C(=O)O; experiment: purified protein; assay type: biochemical, Saccharomyces cerevisiae; conditions: 0.5 mM NADP+, 2 mM MgCl2, 50 mM Tris-HCl pH 8.0, 25°C, apparent, as D-isocitrate
purified protein [5] = substrate: NC(=O)c1ccc[n+]([C@@H]2O[C@H](COP(=O)(O)OP(=O)(O)OC[C@H]3O[C@@H](n4cnc5c(N)ncnc54)[C@H](OP(=O)(O)O)[C@@H]3O)[C@@H](O)[C@H]2O)c1; experiment: purified protein; assay type: biochemical, Saccharomyces cerevisiae; conditions: isocitrate, MgCl2, 50 mM Tris-HCl pH 8.0, 25°C, varied: cofactor
purified protein [6] = substrate: O=C(O)CCC(=O)C(=O)O; experiment: purified protein; assay type: biochemical, Saccharomyces cerevisiae; conditions: NADPH, 2 mM MgCl2, 50 mM Tris-HCl pH 8.0, neomorphic reduction to 2-HG
purified protein [7] = substrate: NC(=O)C1=CN([C@@H]2O[C@H](COP(=O)(O)OP(=O)(O)OC[C@H]3O[C@@H](n4cnc5c(N)ncnc54)[C@H](OP(=O)(O)O)[C@@H]3O)[C@@H](O)[C@H]2O)C=CC1; experiment: purified protein; assay type: biochemical, Saccharomyces cerevisiae; conditions: α-KG, 2 mM MgCl2, 50 mM Tris-HCl pH 8.0, neomorphic reduction, varied: cofactor
purified protein [8] = substrate: O=C(O)C[C@H](C(=O)O)[C@@H](O)C(=O)O; experiment: purified protein; assay type: biochemical, Yarrowia lipolytica; conditions: 0.5 mM NADP+, 2 mM MgCl2, 50 mM Tris-HCl pH 8.0, 25°C, apparent, as D-isocitrate
purified protein [9] = substrate: NC(=O)c1ccc[n+]([C@@H]2O[C@H](COP(=O)(O)OP(=O)(O)OC[C@H]3O[C@@H](n4cnc5c(N)ncnc54)[C@H](OP(=O)(O)O)[C@@H]3O)[C@@H](O)[C@H]2O)c1; experiment: purified protein; assay type: biochemical, Yarrowia lipolytica; conditions: isocitrate, MgCl2, 50 mM Tris-HCl pH 8.0, 25°C, varied: cofactor
purified protein [10] = substrate: O=C(O)CCC(=O)C(=O)O; experiment: purified protein; assay type: biochemical, Yarrowia lipolytica; conditions: NADPH, 2 mM MgCl2, 50 mM Tris-HCl pH 8.0, neomorphic reduction to 2-HG
purified protein [11] = substrate: NC(=O)C1=CN([C@@H]2O[C@H](COP(=O)(O)OP(=O)(O)OC[C@H]3O[C@@H](n4cnc5c(N)ncnc54)[C@H](OP(=O)(O)O)[C@@H]3O)[C@@H](O)[C@H]2O)C=CC1; experiment: purified protein; assay type: biochemical, Yarrowia lipolytica; conditions: α-KG, 2 mM MgCl2, 50 mM Tris-HCl pH 8.0, neomorphic reduction, varied: cofactor

Question: For `O=C(O)CCC(=O)C(=O)O` [α-KG], which Km (HcIDH [1]) is on record?
Answer: The Km was 157 ± 38.4 µM.

Question: What does the source list for `O=C(O)C[C@H](C(=O)O)[C@@H](O)C(=O)O` [isocitrate]?
Answer: Km (HcIDH [2]): 5.7 ± 1.4 µM; Km (HcIDH [3]): 2280 ± 195 µM

B1: ScIDH1 (Saccharomyces cerevisiae S288C) (protein)
chain: FSKIKVKQPVVELDGDEMTRIIWDKIKKKLILPYLDVDLKYYDLSVESRDATSDKITQDAAEAIKKYGVGIKCATITPDEARVKEFNLHKMWKSPNGTIRNILGGTVFREPIVIPRIPRLVPRWEKPIIIGRHAHGDQYKATDTLIPGPGSLELVYKPSDPTTAQPQTLKVYDYKGSGVAMAMYNTDESIEGFAHSSFKLAIDKKLNLFLSTKNTILKKYDGRFKDIFQEVYEAQYKSKFEQLGIHYEHRLIDDMVAQMIKSKGGFIMALKNYDGDVQSDIVAQGFGSLGLMTSILVTPDGKTFESEAAHGTVTRHYRKYQKGEETSTNSIASIFAWSRGLLKRGELDNTPALCKFANILESATLNTVQQDGIMTKDLALACGNNERSAYVTTEEFLDAVEKRLQKEIKSIE
notes: 6xHis-tagged, pET-28b(+), E. coli Rosetta (DE3); transit peptide absent (forward primer encodes M-FSKIKVK); 419 residues per subunit
Question: Which Km (purified protein [4]) does the source give for B1 here?
Answer: The Km was 10.5 ± 1.2 µM.

Question: What about the kcat (purified protein [4]) of the same molecule?
Answer: The kcat was 26.3 ± 0.09 s⁻¹.

Question: And the kcat/Km (purified protein [4])?
Answer: Its kcat/Km is 2.5e+06 M⁻¹ s⁻¹.

Question: And the Km (purified protein [5])?
Answer: The Km was 17.4 ± 2.01 µM.

B2: ScIDH1 (Saccharomyces cerevisiae S288C; R148H) (protein)
chain: B1 chain with R132H
notes: as for B1
Question: Which results are given for B2?
Answer: Km (purified protein [4]): 24.8 ± 3.2 µM; kcat (purified protein [4]): 0.27 ± 0.015 s⁻¹; kcat/Km (purified protein [4]): 11000 M⁻¹ s⁻¹; Km (purified protein [6]): 30.0 ± 1.76 µM; kcat (purified protein [6]): 0.34 ± 0.009 s⁻¹; kcat/Km (purified protein [6]): 11000 M⁻¹ s⁻¹; Km (purified protein [7]): 5.9 ± 0.51 µM

B3: ScIDH1 (Saccharomyces cerevisiae S288C; R148A) (protein)
chain: B1 chain with R132A
notes: as for B1
Question: Which Km (purified protein [4]) does the source give for B3 here?
Answer: The Km was 2263.1 ± 177.3 µM.

Question: And the kcat (purified protein [4])?
Answer: Its kcat is 12.4 ± 5.31 s⁻¹.

Question: And the kcat/Km (purified protein [4])?
Answer: The kcat/Km was 5000 M⁻¹ s⁻¹.

B4: YlIDH (Yarrowia lipolytica CLIB122) (protein)
chain: MSTTATRGLSTKIKVKNPIVELDGDEMTRIIWKSIKDKLILPYLDIDLKYYDLGIEYRDQTNDQVTIDAAEAIKKYQVGVKCATITPDEARVKEFGLKKMWLSPNGTIRNILGGTVFREPIVIPAVPRLVPGWKEPIIIGRHAHGDQYKAQDAVIPGAGELTLNFKPANGGDEQVIKVYTYDAPGVAMAMYNTDESITGFAYSSFNLALQKKLPLYMSTKNTILKKYDGRFKDIFQEIYDKEYKDKFDAAGIWYEHRLIDDMVAQMIKSKGGFIMALKNYDGDVQSDIVAQGFGSLGLMTSVLVTPDGKTFESEAAHGTVTRHYRQHQQGKETSTNSIASIFAWTRGLIQRGILDETPEVTKFAEALEKATVDTVDKDGIMTKDLALAGGKTDRSSYVLTEEFIDAVANRLKKDLA
notes: 6xHis-tagged, pET-28b(+), E. coli Rosetta (DE3); forward primer encodes MSTTATR; 422 residues per subunit
Question: With B4 as the molecule, how does the Km (purified protein [8]) read?
Answer: Its Km is 11.7 ± 1.1 µM.

Question: And the kcat (purified protein [8])?
Answer: The kcat was 26.6 ± 0.87 s⁻¹.

Question: What about the kcat/Km (purified protein [8]) of the same molecule?
Answer: Its kcat/Km is 2.3e+06 M⁻¹ s⁻¹.

Question: And the Km (purified protein [9])?
Answer: Its Km is 4.1 ± 0.76 µM.

B5: YlIDH (Yarrowia lipolytica CLIB122; R141H) (protein)
chain: B4 chain with R141H
notes: as for B4
Question: With B5 as the molecule, how does the Km (purified protein [8]) read?
Answer: Its Km is 25.6 ± 2.3 µM.

Question: What about the kcat (purified protein [8]) of the same molecule?
Answer: The kcat was 0.14 ± 0.006 s⁻¹.

Question: And the kcat/Km (purified protein [8])?
Answer: Its kcat/Km is 5000 M⁻¹ s⁻¹.

Question: What about the Km (purified protein [10]) of the same molecule?
Answer: The Km was 47.3 ± 4.2 µM.

Question: And the kcat (purified protein [10])?
Answer: Its kcat is 0.43 ± 0.017 s⁻¹.

Question: And the kcat/Km (purified protein [10])?
Answer: The kcat/Km was 9000 M⁻¹ s⁻¹.

Question: What about the Km (purified protein [11]) of the same molecule?
Answer: The Km was 3.2 ± 0.43 µM.
